Consider 44 molecules from patent US20230381328A1, “COMPOUND FOR THE PREVENTION OR TREATMENT OF MYASTHENIA GRAVIS” (ABLEVIA BIOTECH GMBH, priority 2020, published 2023).

The assay has as its target monoclonal antibody mAB 198. The assay is described as follows: peptide microarray, fluorescence, cyclic peptide.

Where no end group is shown, it is not given here.

With RLYWNPADY (also: cyclic peptide, ring type and places not given here), the relative signal [%] stood at 13.7%. In turn, RPNPADY (also: cyclic peptide, ring type and places not given here) [RPNPADY, cyclic mimotope] displayed a relative signal [%] of 15.6%. The figure for GGSLRINPADY (also: cyclic peptide, mode of cyclisation not given here) is 25.4%; for GGSLRVNPADY (also: cyclic peptide, mode of cyclisation not given here) it is 22.5%; for DVRLRPNPADY (also: cyclic peptide, mode of cyclisation not given here) it is 21.3%. To VRLRVNPADYG (also: cyclic peptide, mode of cyclisation not given here) belongs 13.4%. RYNPADY (also: cyclic peptide, ring type and places not given here) [RYNPADY, cyclic mimotope] had a relative signal [%] of 20.2%.

For the molecule GGSLRYNPADY (also: cyclic peptide, mode of cyclisation not given here), the relative signal [%] was 11.5%. To SLRFNPADY (also: cyclic peptide, ring type and places not given here) belongs 13.6%; to DVRLRGNPADY (also: cyclic peptide, mode of cyclisation not given here), 25%. The figure for WNPADYP (also: cyclic peptide, mode of cyclisation not given here) [WNPADYP, cyclic mimotope] is 21.1%; for RTNPADY (also: cyclic peptide, ring type and places not given here) [RTNPADY, cyclic mimotope] it is 14.6%. The figure for RANPADY (also: cyclic peptide, ring type and places not given here) [RANPADY, cyclic mimotope] is 12.2%; for RLRYNPADY (also: cyclic peptide, ring type and places not given here) it is 24.5%. In turn, RRNPADY (also: cyclic peptide, ring type and places not given here) [RRNPADY, cyclic mimotope] showed a relative signal [%] of 23.5%. The figure for ALRWNPADY (also: cyclic peptide, mode of cyclization not given here) is 11.5%.

Take SLRYNPADY (also: cyclic peptide, mode of cyclisation not given here): the relative signal [%] was found to be 12.2%. With SLRLNPADY (also: cyclic peptide, mode of cyclisation not given here), the relative signal [%] was found to be 21.8%. To GGSLRGNPADY (also: cyclic peptide, mode of cyclisation not given here) belongs 19.6%.

Molecule RGNPADYGG (also: cyclic peptide, ring type and places not given here) gave a relative signal [%] of 22.2%. The figure for GSLRWNPADYR (also: cyclic peptide, mode of cyclisation not given here) is 16.2%; for RINPADYGG (also: cyclic peptide, ring type and places not given here) it is 23.1%. The figure for RGNPADY (also: cyclic peptide, ring type and places not given here) [RGNPADY, cyclic mimotope] is 23.8%; for VRLRRNPAD (also: cyclic peptide, mode of cyclisation not given here) it is 14.7%. To NPADYGD (also: cyclic peptide, mode of cyclisation not given here) [NPADYGD, cyclic mimotope] belongs 12.6%.

Turning to NPADYGY (also: cyclic peptide, ring type and places not given here) [NPADYGY, cyclic mimotope], the relative signal [%] was 11.8%. The figure for NPADYGR (also: cyclic peptide, ring type and places not given here) [NPADYGR, cyclic mimotope] is 19.5%. To RIRWNPADY (also: cyclic peptide, ring type and places not given here) belongs 11.5%; to GSLRINPADYG (also: cyclic peptide, mode of cyclisation not given here), 12.1%. The molecule GGSLRFNPADY (also: cyclic peptide, mode of cyclisation not given here) showed a relative signal [%] of 14.5%. To RLRFNPADY (also: cyclic peptide, ring type and places not given here) belongs 21.3%; to RPNPADYGG (also: cyclic peptide, ring type and places not given here), 11.9%; to LRRNPADYG (also: cyclic peptide, mode of cyclisation not given here), 23.4%. To LRINPADYG (also: cyclic peptide, mode of cyclisation not given here) belongs 22.8%; to GGGSLRRNPAD (also: cyclic peptide, mode of cyclisation not given here), 12.5%. The figure for SLRGNPADY (also: cyclic peptide, ring type and places not given here) is 15.4%; for LRWNPADYP (also: cyclic peptide, mode of cyclisation not given here) it is 13.1%. The molecule RVNPADY (also: cyclic peptide, ring type and places not given here) [RVNPADY, cyclic mimotope] returned a relative signal [%] of 18.7%. To GSLRWNPADYP (also: cyclic peptide, mode of cyclisation not given here) belongs 12.4%; to WNPADYR (also: cyclic peptide, mode of cyclisation not given here) [WNPADYR, cyclic mimotope], 24.9%. The figure for NPADYGH (also: cyclic peptide, mode of cyclisation not given here) [NPADYGH, cyclic mimotope] is 15.8%; for VNPADYG (also: cyclic peptide, mode of cyclisation not given here) [VNPADYG, cyclic mimotope] it is 12.5%; for GNPADYGGI (also: cyclic peptide, mode of cyclisation not given here) it is 13.7%. The figure for RPRWNPADY (also: cyclic peptide, ring type and places not given here) is 12.4%.
